These results are taken from patent publication US20240285788A1, “CONJUGATE OF ANTIBODY AND FUNCTIONAL SUBSTANCE OR SALT THEREOF, AND ANTIBODY DERIVATIVE AND COMPOUND USED IN PRODUCTION OF THE SAME OR SALTS THEREOF” (Ajinomoto Co., Inc., priority 2021, published 2024).

Series [1] is described as follows: Evaluation of degree of hydrophobicity by hydrophobic column chromatography (HIC-HPLC). It is filed as physicochemical. The following applies: for Retention time: ADC mimics from thiol group-introduced trastuzumab, DAR 2. As for the experimental part: According to a previous report (Anal. Chem., 2019, 91, 20, 12724-12732, which is incorporated herein by reference in tis entirety), HIC-HPLC analysis was performed. Measurement was performed using the following conditions. Degrees of hydrophobicity of an ADC can be evaluated by retention time of the ADC in HIC chromatogram.
Measurement system: Chromaster (registered trademark) (manufactured by Hitachi, Ltd.)
Column: Tosoh Biobuthyl NPR 2.5 μm 4.6×35 mm column manufactured by Tosoh Bio-Sciences Inc.
Gradient: linear gradient of eluent A/B
Eluent B: 25 mM Na2HPO4/NaH2PO4 (pH 6.0, 25 v/v % isopropanol added)
For DAR analysis of the ADC mimics synthesized in Example 7 and Comparative Example 2, HIC-HPLC analysis was performed according to a previous report (Anal. Chem., 2019, 91, 20, 12724-12732, which is incorporated herein by reference in its entirety). Measurement was performed using the following conditions.
HIC-HPLC analysis was performed using the condition of Example 8. Measurement was performed using the following conditions. A degree of hydrophobicity of ADC mimic can be evaluated by retention time of ADC in HIC chromatogram.
HIC-HPLC analysis was performed using the condition of Example 8.
Subsequently, hydrophobicity of an ADC was evaluated using HIC-HPLC. Measurement was performed according to Example 9. A degree of hydrophobicity of an ADC can be evaluated by retention time of ADC in HIC chromatogram.
According to a previous report (Anal. Chem., 2019, 91, 20, 12724-12732, which is incorporated herein by reference in its entirety), HIC-HPLC analysis was performed. Measurement was performed using the following conditions. Degrees of hydrophobicity of an ADC can be evaluated by retention time of the ADC in HIC chromatogram.

The nature of series [2]: Evaluation of aggregation ratio by size exclusion chromatography (SEC-HPLC). It is filed as physicochemical. Here is the method:
SEC-HPLC analysis was performed according to a previous report (Chemistry Select, 2020, 5, 8435-8439). Measurement was performed using the following conditions.
Measurement system: 1260 HPLC system (manufactured by Agilent)
Column: AdvanceBio SEC 300 Å, 2.7 μm, 4.6 mm×150 mm, manufactured by Agilent Technologies
Eluent: 100 mM sodium dihydrogen phosphate/sodium hydrogen phosphate, aqueous solution of 250 mM sodium chloride (pH 6.8), 10% v/v isopropanol
SEC-HPLC analysis was performed according to Example 10.

Consider `CCCCCNC(=O)CCSC1CC(=O)N(CCCCCNC(=O)C(OC(=O)N(C)CC(=O)NCc2ccc3ccc4cccc5ccc2c3c45)c2ccc(NC(=O)[C@H](CCCNC(N)=O)NC(=O)[C@@H](NC(=O)OCc3ccccc3)C(C)C)cc2)C1=O` (stereo partly drawn) [ADC mimic 5], for which the Retention time in series [1] (Table 2, HIC-HPLC) was 13.6 min; in series [1] (Table 20), 13.6 min.

In the case of `CSC1CC(=O)N(CCCCCNC(=O)C(OC(=O)N(C)CC(=O)NCc2ccc3ccc4cccc5ccc2c3c45)c2ccc(NC(=O)[C@H](CCCNC(N)=O)NC(=O)[C@@H](NC(=O)[C@H](CCC(=O)O)NC(C)=O)C(C)C)cc2)C1=O` (stereo partly drawn) [ADC mimic 12], in series [1], the “degree of hydrophilicity judged from retention time in HIC chromatogram (in words)” value (“degree of hydrophilicity judged” for short) is listed as “more hydrophilic”.

Consider `CSC1CC(=O)N(CCCCCNC(=O)C(OC(=O)N(C)CC(=O)NCc2ccc3ccc4cccc5ccc2c3c45)c2ccc(NC(=O)[C@H](CCCNC(N)=O)NC(=O)[C@@H](NC(=O)[C@H](CCC(=O)O)NC(=O)[C@H](CCC(=O)O)NC(C)=O)C(C)C)cc2)C1=O` (stereo partly drawn) [ADC mimic 13], for which the “degree of hydrophilicity judged” value in series [1] is reported as “more hydrophilic”. Besides, in series [2], the “tendency of aggregation ratio by SEC-HPLC (in words)” value is “low aggregation ratios”.

In the case of `CSC1CC(=O)N(CCCCCNC(=O)C(OC(=O)N(C)CC(=O)NCc2ccc3ccc4cccc5ccc2c3c45)c2ccc(NC(=O)[C@H](C)NC(=O)[C@@H](NC(=O)[C@H](CCC(=O)O)NC(C)=O)C(C)C)cc2)C1=O` (stereo partly drawn) [ADC mimic 14], in series [1], the “degree of hydrophilicity judged” value is “more hydrophilic”.
